# Measurements: the supplement of paper PMC10567573
# B1: USP39 (parent)
# chain: FVEKNPTIVNFPITNVDLREYLSE
# B2: CLCN6 (parent)
# chain: ILRSQLVTLLVRGVCYSESQSSAS
# Variants of: B1
# Assay: protein stability index of a GFP-peptide fusion (GPS, HEK-293T) (PSI 1-6); higher = more stable
# Details: c terminus: a fixed tail appended
# 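Also: lentivirally expressed fusions sorted by FACS into six bins by GFP to DsRed ratio, PSI derived from sequencing read proportions per bin multiplied by bin number.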
row,Variant,protein stability index
1,FVEKNPTIVNFPITNVDLREYLST [E24T],1.78
2,FVEKNPTIVNFPITNVDLREYLSF [E24F],2.02
3,FVEKNPTIVNFPITNVDLREYLSS [E24S],1.88
4,FVEKNPTIVNFPITNVDLREYLSD [E24D],1.37
5,FVEKNPTIVNFPITNVDLREYLSA [E24A],2.19
6,FVEKNPTIVNFPITNVDLREYLSH [E24H],2.5
7,FVEKNPTIVNFPITNVDLREYLSI [E24I],1.64
8,FVEKNPTIVNFPITNVDLREYLSR [E24R],1.53
9,FVEKNPTIVNFPITNVDLREYLSN [E24N],2.24
10,FVEKNPTIVNFPITNVDLREYLSM [E24M],1.59
11,FVEKNPTIVNFPITNVDLREYLSW [E24W],1.93
12,FVEKNPTIVNFPITNVDLREYLSQ [E24Q],2.04
13,FVEKNPTIVNFPITNVDLREYLSC [E24C],2.11
14,FVEKNPTIVNFPITNVDLREYLSK [E24K],1.84
15,FVEKNPTIVNFPITNVDLREYLSP [E24P],2.1
16,FVEKNPTIVNFPITNVDLREYLSY [E24Y],1.84
17,FVEKNPTIVNFPITNVDLREYLSG [E24G],2.14
18,FVEKNPTIVNFPITNVDLREYLSL [E24L],2.27
19,FVEKNPTIVNFPITNVDLREYLVE [S23V],1.77
20,FVEKNPTIVNFPITNVDLREYLQE [S23Q],1.78
21,FVEKNPTIVNFPITNVDLREYLPE [S23P],2.13
22,FVEKNPTIVNFPITNVDLREYLYE [S23Y],4.51
23,FVEKNPTIVNFPITNVDLREYLLE [S23L],1.11
24,FVEKNPTIVNFPITNVDLREYLIE [S23I],3.78
25,FVEKNPTIVNFPITNVDLREYLTE [S23T],1.06
26,FVEKNPTIVNFPITNVDLREYLME [S23M],2
27,FVEKNPTIVNFPITNVDLREYLRE [S23R],2.02
28,FVEKNPTIVNFPITNVDLREYLKE [S23K],2.59
29,FVEKNPTIVNFPITNVDLREYLNE [S23N],1.65

# Variants of: B2
# Assay: as above
# Details: c terminus: a fixed tail appended
row,Variant,protein stability index
1,ILRSDLVTLLVRGVCYSESQSSAS [Q5D],2.31
2,ILRSKLVTLLVRGVCYSESQSSAS [Q5K],2.79
3,ILRSFLVTLLVRGVCYSESQSSAS [Q5F],2.23
4,ILRSYLVTLLVRGVCYSESQSSAS [Q5Y],3.81
5,ILRSPLVTLLVRGVCYSESQSSAS [Q5P],2.72
6,ILRSVLVTLLVRGVCYSESQSSAS [Q5V],2.98
7,ILRSCLVTLLVRGVCYSESQSSAS [Q5C],3.81
8,ILRSNLVTLLVRGVCYSESQSSAS [Q5N],3.29
9,ILRSALVTLLVRGVCYSESQSSAS [Q5A],1.97
10,ILRSWLVTLLVRGVCYSESQSSAS [Q5W],1.44
11,ILRSMLVTLLVRGVCYSESQSSAS [Q5M],3.17
12,ILRSELVTLLVRGVCYSESQSSAS [Q5E],3.8
13,ILRSSLVTLLVRGVCYSESQSSAS [Q5S],3.4
14,ILRSTLVTLLVRGVCYSESQSSAS [Q5T],2.06
15,WLRSQLVTLLVRGVCYSESQSSAS [I1W],3.34
16,LLRSQLVTLLVRGVCYSESQSSAS [I1L],3.03
17,KLRSQLVTLLVRGVCYSESQSSAS [I1K],3.63
18,ALRSQLVTLLVRGVCYSESQSSAS [I1A],3.79
19,HLRSQLVTLLVRGVCYSESQSSAS [I1H],1.82
20,MLRSQLVTLLVRGVCYSESQSSAS [I1M],3.86
21,RLRSQLVTLLVRGVCYSESQSSAS [I1R],2.09
22,DLRSQLVTLLVRGVCYSESQSSAS [I1D],3.23

row,Variant,protein stability index
1,TLRSQLVTLLVRGVCYSESQSSAS [I1T],2.87
2,PLRSQLVTLLVRGVCYSESQSSAS [I1P],2.04
3,FLRSQLVTLLVRGVCYSESQSSAS [I1F],3.23
4,GLRSQLVTLLVRGVCYSESQSSAS [I1G],2.2
5,SLRSQLVTLLVRGVCYSESQSSAS [I1S],3.03
6,CLRSQLVTLLVRGVCYSESQSSAS [I1C],2.09
7,ILISQLVTLLVRGVCYSESQSSAS [R3I],3.78
8,ILMSQLVTLLVRGVCYSESQSSAS [R3M],2.62
9,ILQSQLVTLLVRGVCYSESQSSAS [R3Q],3.3
10,ILCSQLVTLLVRGVCYSESQSSAS [R3C],3.38
11,ILPSQLVTLLVRGVCYSESQSSAS [R3P],2.36
12,ILYSQLVTLLVRGVCYSESQSSAS [R3Y],2.72
13,ILVSQLVTLLVRGVCYSESQSSAS [R3V],2.67
14,ILASQLVTLLVRGVCYSESQSSAS [R3A],2.34
15,ILWSQLVTLLVRGVCYSESQSSAS [R3W],3.08
16,ILKSQLVTLLVRGVCYSESQSSAS [R3K],3.85
17,ILRKQLVTLLVRGVCYSESQSSAS [S4K],2.19
18,ILRHQLVTLLVRGVCYSESQSSAS [S4H],3.41
19,ILREQLVTLLVRGVCYSESQSSAS [S4E],3.85
20,ILRNQLVTLLVRGVCYSESQSSAS [S4N],2.54
21,ILRTQLVTLLVRGVCYSESQSSAS [S4T],2.68
22,ILRMQLVTLLVRGVCYSESQSSAS [S4M],2.78

row,Variant,protein stability index
1,ILRDQLVTLLVRGVCYSESQSSAS [S4D],2.21
2,ILRLQLVTLLVRGVCYSESQSSAS [S4L],2.56
3,ILRVQLVTLLVRGVCYSESQSSAS [S4V],2.58
4,ILRWQLVTLLVRGVCYSESQSSAS [S4W],3.61
5,ILRIQLVTLLVRGVCYSESQSSAS [S4I],3.85
6,ILRYQLVTLLVRGVCYSESQSSAS [S4Y],2.3
7,ICRSQLVTLLVRGVCYSESQSSAS [L2C],3.49
8,IHRSQLVTLLVRGVCYSESQSSAS [L2H],1.3
9,IIRSQLVTLLVRGVCYSESQSSAS [L2I],3.02
10,IDRSQLVTLLVRGVCYSESQSSAS [L2D],1.66
11,INRSQLVTLLVRGVCYSESQSSAS [L2N],2.06
12,IERSQLVTLLVRGVCYSESQSSAS [L2E],1.93
13,ISRSQLVTLLVRGVCYSESQSSAS [L2S],3.23
14,IMRSQLVTLLVRGVCYSESQSSAS [L2M],3.88
15,IYRSQLVTLLVRGVCYSESQSSAS [L2Y],3.62
16,IKRSQLVTLLVRGVCYSESQSSAS [L2K],2.42
17,IFRSQLVTLLVRGVCYSESQSSAS [L2F],2.44
18,IGRSQLVTLLVRGVCYSESQSSAS [L2G],2.64
19,IQRSQLVTLLVRGVCYSESQSSAS [L2Q],2.62
20,IRRSQLVTLLVRGVCYSESQSSAS [L2R],1.95
21,IPRSQLVTLLVRGVCYSESQSSAS [L2P],2.01
